The results in this text go back to patent US20250011363A1, “OPTIMIZED SHORTENED PEPTIDE THAT BINDS TO ACETYLCHOLINE RECEPTOR, AND USE THEREOF” (SKINMED CO., LTD., priority 2021, published 2025).

For the experiment, the target named is acetylcholine receptor (Homo sapiens, UniProt P02708). Put plainly: SPR binding affinity (RU) of optimized 5mer/6mer/7mer peptides, Examples 6-7. The following applies: SPR, peptides tested at 10 μM; 5mer Top sequence. On the procedure:
Based on the frequencies of occurrence of the top 7 amino acids from Table 7 in Example 5, 600 peptides comprising these amino acids (top combinations) and those comprising the 13 less frequently occurring amino acids (bottom combinations) were synthesized for each series of 5mer, 6mer-1, and 6mer-2. The binding affinity of each sequence for the acetylcholine receptor was measured using Surface Plasmon Resonance (SPR) analysis method. The peptides were tested at a concentration of 10 μM. Additionally, the average binding affinities of the top and bottom combinations in each series are depicted in FIGS. 5-7.
Representative peptides identified in Example 6, two in each library, including 5mers (73, 311) and 6mers-1 (43, 210) and 6mers-2 (136, 233), were compared with the pre-optimized 6mer, 5mer-ND, and Synake.

Sequence of acetylcholine receptor (P02708 21-457): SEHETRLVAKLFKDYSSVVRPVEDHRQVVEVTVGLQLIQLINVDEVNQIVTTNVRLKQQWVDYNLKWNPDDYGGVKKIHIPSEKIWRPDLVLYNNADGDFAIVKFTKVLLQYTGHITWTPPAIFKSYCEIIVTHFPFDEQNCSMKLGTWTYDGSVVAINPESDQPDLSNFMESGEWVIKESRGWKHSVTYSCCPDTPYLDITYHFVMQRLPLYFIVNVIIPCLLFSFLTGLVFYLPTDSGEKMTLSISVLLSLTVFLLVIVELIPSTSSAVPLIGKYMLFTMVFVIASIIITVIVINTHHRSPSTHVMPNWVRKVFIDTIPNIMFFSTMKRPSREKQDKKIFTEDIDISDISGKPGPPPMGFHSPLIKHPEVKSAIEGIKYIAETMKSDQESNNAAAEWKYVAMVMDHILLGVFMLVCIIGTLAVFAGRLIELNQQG

Consider 5mer-1 (RVQCK), for which the Binding affinity is 54 Ru.
In the case of 5mer-2 (KRISR), the Binding affinity was 80 Ru.
As to 5mer-3 (KRVLK), the Binding affinity was 66 Ru.
The result for 5mer-4 (KRFLR) reads 58 Ru; that for 5mer-5 (KLFLR), 54 Ru.
Take 5mer-6 (RWQQK): the Binding affinity was determined as 61 Ru.
As for 5mer-7 (RQLTK), the Binding affinity is listed as 54 Ru.
For 5mer-8 (RQRSR) the value was 51 Ru; for 5mer-9 (RGVQR), 77 Ru.
For 5mer-10 (RVQRR) the value was 55 Ru; for 5mer-11 (KQRLR), 84 Ru.
With 5mer-12 (RVFLR), the Binding affinity was 70 Ru.
Turning to 5mer-13 (RLISK), the Binding affinity turned out to be 52 Ru.
The result for 5mer-14 (RWLCK) reads 63 Ru.
For 5mer-15 (KGVCK), the Binding affinity came to 75 Ru.
As for 5mer-16 (KLYTK), the Binding affinity came out at 66 Ru.
As for 5mer-17 (KRIYK), the Binding affinity amounted to 70 Ru.
With 5mer-18 (RQLRR), the Binding affinity stood at 69 Ru.
As to 5mer-19 (KRFQR), the Binding affinity is 72 Ru.
For 5mer-20 (RGRYK), the Binding affinity worked out at 78 Ru.
Consider 5mer-21 (KWFTR), for which the Binding affinity is reported as 63 Ru.
As for 5mer-22 (RQQLK), the Binding affinity was determined as 66 Ru.
On to 5mer-23 (KWLYK), for which the Binding affinity worked out at 86 Ru.
On to 5mer-24 (KSQCR), for which the Binding affinity is on record as 67 Ru.
On to 5mer-25 (KVVYK), for which the Binding affinity stood at 60 Ru.
The result for 5mer-26 (RQQQR) reads 65 Ru; that for 5mer-27 (KGYLR), 67 Ru.
As for 5mer-28 (RLLSR), the Binding affinity was 74 Ru.
On to 5mer-29 (KGFCR), for which the Binding affinity was 63 Ru.
For 5mer-30 (KSQLR) the value was 70 Ru; for 5mer-31 (RRLQR), 65 Ru.
The result for 5mer-32 (RQLSR) reads 75 Ru.
As to 5mer-33 (RRISK), the Binding affinity is 59 Ru.
As to 5mer-34 (KRIRK), the Binding affinity is recorded as 82 Ru.
As for 5mer-35 (RWQYK), the Binding affinity came out at 80 Ru.
Turning to 5mer-36 (RRLQK), the Binding affinity stood at 60 Ru.
Turning to 5mer-37 (RRLSR), the Binding affinity was found to be 72 Ru.
The result for 5mer-38 (RGYCK) reads 53 Ru.
Consider 5mer-39 (KQVSR), for which the Binding affinity worked out at 67 Ru.
The result for 5mer-40 (KSVCR) reads 67 Ru.
In the case of 5mer-41 (KVISK), the Binding affinity was 82 Ru.
On to 5mer-42 (RQRLR), for which the Binding affinity came out at 83 Ru.
5mer-43 (KSFYR): the Binding affinity was 53 Ru.
Regarding 5mer-44 (RSRTR), the Binding affinity is 59 Ru.
On to 5mer-45 (RVFQR), for which the Binding affinity was found to be 86 Ru.
For the substance 5mer-46 (KRQCK), the Binding affinity is 76 Ru.
As to 5mer-47 (KGVRR), the Binding affinity amounted to 70 Ru.
With 5mer-48 (RVYLR), the Binding affinity worked out at 62 Ru.
In the case of 5mer-49 (KWRTR), the Binding affinity was determined as 62 Ru.
In the case of 5mer-50 (KLLCR), the Binding affinity turned out to be 63 Ru.
Regarding 5mer-51 (RSLQR), the Binding affinity is given as 70 Ru.
On to 5mer-52 (RQQYK), for which the Binding affinity is reported as 50 Ru.
On to 5mer-53 (RLVTR), for which the Binding affinity was 50 Ru.
Consider 5mer-54 (KWLQR), for which the Binding affinity amounted to 66 Ru.
As to 5mer-55 (RRFSR), the Binding affinity was 58 Ru.
With 5mer-56 (KRFCK), the Binding affinity came out at 59 Ru.
For 5mer-57 (KQLYR), the Binding affinity was found to be 73 Ru.
The result for 5mer-58 (KWVSK) reads 75 Ru; that for 5mer-59 (KLQYR), 68 Ru.
5mer-60 (RLFTK): the Binding affinity worked out at 86 Ru.
The result for 5mer-61 (RLILK) reads 66 Ru; that for 5mer-62 (KQLTK), 70 Ru; that for 5mer-63 (RLLRK), 86 Ru.
As to 5mer-64 (KVVTR), the Binding affinity stood at 76 Ru.
Take 5mer-65 (RQIRR): the Binding affinity is reported as 67 Ru.
For 5mer-66 (KRLLR), the Binding affinity was 80 Ru.
For 5mer-67 (RQLYR), the Binding affinity is 86 Ru.
Regarding 5mer-68 (RGFYK), the Binding affinity is recorded as 82 Ru.
Turning to 5mer-69 (RSRSR), the Binding affinity stood at 50 Ru.
With 5mer-70 (RLLQR), the Binding affinity came out at 69 Ru.
The result for 5mer-71 (KLQSK) reads 68 Ru; that for 5mer-72 (KLYRR), 50 Ru; that for 5mer-74 (RQITK), 87 Ru.
As to 5mer-75 (KVQTK), the Binding affinity amounted to 63 Ru.
Regarding 5mer-76 (RGYRR), the Binding affinity is listed as 80 Ru.
For the substance 5mer-77 (KWRQK), the Binding affinity was found to be 74 Ru.
On to 5mer-78 (KVICK), for which the Binding affinity came out at 79 Ru.
5mer-79 (RWFLR): the Binding affinity is 82 Ru.
The result for 5mer-80 (KSRTR) reads 83 Ru.
Regarding 5mer-81 (RGIYR), the Binding affinity came out at 79 Ru.
Take 5mer-82 (RQRYK): the Binding affinity worked out at 84 Ru.
For 5mer-83 (KGFSR), the Binding affinity was determined as 64 Ru.
In the case of 5mer-84 (RVVRR), the Binding affinity is given as 67 Ru.
In the case of 5mer-85 (KGVLK), the Binding affinity is 74 Ru.
On to 5mer-86 (RRLCK), for which the Binding affinity is recorded as 55 Ru.
With 5mer-87 (RQITR), the Binding affinity is 55 Ru.
With 5mer-88 (RRVQK), the Binding affinity is reported as 73 Ru.
5mer-89 (KRITK): the Binding affinity was 77 Ru.
As for 5mer-90 (RWYTK), the Binding affinity came to 86 Ru.
The result for 5mer-91 (RQIQK) reads 55 Ru.
For 5mer-92 (RVRLK) the value was 62 Ru.
Consider 5mer-93 (KWVYR), for which the Binding affinity came to 79 Ru.
The result for 5mer-94 (RWFQR) reads 50 Ru; that for 5mer-95 (RGRRK), 68 Ru; that for 5mer-96 (RVLYR), 55 Ru.
Take 5mer-97 (KRQLR): the Binding affinity came to 52 Ru.
As for 5mer-98 (KWYCK), the Binding affinity is recorded as 68 Ru.
For the substance 5mer-99 (RWICK), the Binding affinity came out at 58 Ru.
The result for 5mer-100 (KVIRK) reads 80 Ru; that for 5mer-101 (RQQYR), 55 Ru.
In the case of 5mer-102 (RGFSK), the Binding affinity was 82 Ru.
For the substance 5mer-103 (RWFLK), the Binding affinity was found to be 62 Ru.
Regarding 5mer-104 (RVVLK), the Binding affinity is reported as 74 Ru.
In the case of 5mer-105 (RGQQR), the Binding affinity worked out at 50 Ru.
For 5mer-106 (KLLQR), the Binding affinity worked out at 78 Ru.
Regarding 5mer-107 (RWVSR), the Binding affinity came to 56 Ru.
The result for 5mer-108 (KWQLK) reads 77 Ru; that for 5mer-109 (RLQCR), 68 Ru.
Consider 5mer-110 (KRRLK), for which the Binding affinity was 76 Ru.
Take 5mer-111 (KSVLK): the Binding affinity stood at 85 Ru.
For the substance 5mer-112 (KRYYR), the Binding affinity is 58 Ru.
Regarding 5mer-113 (KRLRK), the Binding affinity is reported as 79 Ru.
For the substance 5mer-114 (KRQRR), the Binding affinity came to 82 Ru.
In the case of 5mer-115 (RWLLR), the Binding affinity worked out at 75 Ru.
As for 5mer-116 (RWRSK), the Binding affinity is 64 Ru.
For 5mer-117 (RSVYK), the Binding affinity turned out to be 69 Ru.
In the case of 5mer-118 (RVICK), the Binding affinity worked out at 87 Ru.
Turning to 5mer-119 (KQIRK), the Binding affinity amounted to 60 Ru.
Turning to 5mer-120 (RQILK), the Binding affinity is listed as 68 Ru.
For 5mer-121 (RQVTR) the value was 73 Ru; for 5mer-122 (RSYQK), 78 Ru; for 5mer-123 (KWIRR), 53 Ru.
As for 5mer-124 (KGFSK), the Binding affinity worked out at 58 Ru.
For the substance 5mer-125 (RVRQK), the Binding affinity amounted to 67 Ru.
Turning to 5mer-126 (RGVTK), the Binding affinity worked out at 61 Ru.
The result for 5mer-127 (RWVTK) reads 86 Ru; that for 5mer-128 (RGVCR), 56 Ru.
As for 5mer-129 (KSLLK), the Binding affinity was found to be 63 Ru.
On to 5mer-130 (RRFRK), for which the Binding affinity is recorded as 80 Ru.
On to 5mer-131 (KLRRR), for which the Binding affinity is 72 Ru.
For 5mer-132 (RVRCK), the Binding affinity is recorded as 83 Ru.
In the case of 5mer-133 (KGQRK), the Binding affinity stood at 84 Ru.
The result for 5mer-134 (RQFSK) reads 61 Ru; that for 5mer-135 (RRLLR), 64 Ru; that for 5mer-136 (RRIYK), 75 Ru.
As for 5mer-137 (KGVSK), the Binding affinity was 77 Ru.
For 5mer-138 (RQRCR) the value was 71 Ru; for 5mer-139 (RLQYK), 73 Ru.
For 5mer-140 (KWRLR), the Binding affinity was determined as 69 Ru.
